Source: patent publication US20250313619A1, “RISANKIZUMAB COMPOSITIONS” (ABBVIE INC., priority 0001, published 2025)

How the values were obtained:
[1] = Size exclusion chromatography (UP-SEC/SEC): monomer and HMW; type: physicochemical; conditions: compared to Process 1 reference standard DS1-RS2
Text: (§1) The PLBL2 KO, PLA2G15 KO, LPL KO and wild-type process control materials were thawed and purified using Process 1 (see Example 1), while ultrafiltration/diafiltration (UF/DF) followed Process 4 (see Example 3). […] High molecular weight (HMW) by size exclusion chromatography (SEC), charge variants by weak cation exchange chromatography (WCX), low molecular weight (LMW) by non-reduced capillary electrophoresis sodium dodecyl sulfate (CE-SDS), free fatty acids (FFA) and PS20 levels were monitored during the stability study at various time points.
(§2) Antibody preparations derived from the knock-out samples and controls were tested for the presence of the three lipases by specific ELISA methods: PLBL2 and PLA2G15 were measured using CHO-specific in-house methods and LPL was measured using a commercial anti-mouse ELISA kit. PS20 stability was measured in samples that were incubated for different lengths of time (several time points over a 12-month period) and different temperatures (5° C., 25° C., 40° C.) using two different methods. One method measured the total amount of PS20 present in the sample; PS20 was quantified directly by using a RP-HPLC-CAD method. The other method assessed the breakdown of PS20 by measuring the amount of free fatty acid, mainly lauric acid that was released by hydrolysis. […] The generated signal is directly proportional to the quantity of FFAs released. […]

[2] = Non-reduced capillary gel electrophoresis (CGE-NR / CE-SDS): main peak and LMW; type: physicochemical; conditions: compared to Process 1 reference standard DS1-RS2
Text: as §1, §2

IL-23 [3] = molecular target: T1, IL-23 (Homo sapiens, UniProt Q9NPF7); assay: Inhibition of IL-23 stimulated IL-17 production; type: cell-based; conditions: read-out: inhibition of IL-23 stimulated IL-17 production, inhibitory concentration (IC) 50
T1 sequence (Q9NPF7 20-189): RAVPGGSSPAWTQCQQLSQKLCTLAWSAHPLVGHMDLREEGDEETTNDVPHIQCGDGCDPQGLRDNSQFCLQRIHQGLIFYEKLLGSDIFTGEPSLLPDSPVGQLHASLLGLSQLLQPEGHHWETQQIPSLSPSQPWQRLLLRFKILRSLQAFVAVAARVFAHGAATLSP
T1 sequence (P29460 23-328 partner): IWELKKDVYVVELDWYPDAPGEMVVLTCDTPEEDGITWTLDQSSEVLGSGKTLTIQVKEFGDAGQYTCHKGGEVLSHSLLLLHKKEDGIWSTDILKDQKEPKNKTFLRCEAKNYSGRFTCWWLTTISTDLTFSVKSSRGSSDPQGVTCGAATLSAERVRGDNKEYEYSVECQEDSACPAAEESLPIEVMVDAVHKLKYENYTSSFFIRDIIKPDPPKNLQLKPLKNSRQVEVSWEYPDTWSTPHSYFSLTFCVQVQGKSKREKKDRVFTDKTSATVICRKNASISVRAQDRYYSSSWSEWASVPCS

IL-12 = molecular target: T2, IL-12 (Homo sapiens, UniProt P29459+P29460); assay: IL-12 effect / IL-12 stimulated IFN-γ production; type: cell-based
T2 sequence (P29459 23-219): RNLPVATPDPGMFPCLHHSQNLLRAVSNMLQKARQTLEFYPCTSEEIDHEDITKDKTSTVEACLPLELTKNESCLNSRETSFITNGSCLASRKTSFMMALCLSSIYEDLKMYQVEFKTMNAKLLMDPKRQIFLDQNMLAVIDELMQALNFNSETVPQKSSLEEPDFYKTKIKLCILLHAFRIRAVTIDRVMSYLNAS
T2 sequence (P29460 23-328): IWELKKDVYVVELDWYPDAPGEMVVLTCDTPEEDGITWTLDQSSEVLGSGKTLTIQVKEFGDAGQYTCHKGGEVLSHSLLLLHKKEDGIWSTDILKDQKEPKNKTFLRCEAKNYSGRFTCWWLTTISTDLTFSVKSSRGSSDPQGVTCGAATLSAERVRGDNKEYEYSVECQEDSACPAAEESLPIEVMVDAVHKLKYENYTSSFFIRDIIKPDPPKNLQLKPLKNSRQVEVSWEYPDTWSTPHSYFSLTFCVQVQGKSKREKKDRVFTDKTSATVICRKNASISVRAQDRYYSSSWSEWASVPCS

IL-23 [4] = molecular target: T1, IL-23; assay: Binding to human IL-23
healthy adult subjects = assay: Anti-drug antibody (ADA) incidence after single 150 mg SC dose, bridging electrochemiluminescence immunoassay; type: in vivo, human; conditions: 113 days
Procedure: A single-dose, randomized, two-parallel-arm, open-label, multi-center study in healthy adult subjects was carried out. Subjects received a risankizumab 150 mg dose by subcutaneous (SC) injection in the abdomen using a 150 mg/ml formulation in a prefilled syringe (PFS). Arm 1: Risankizumab 150 mg/mL formulation in PFS produced by Process 4 (150 mg×1 SC injection) (test, N=132); Arm 2: Risankizumab 150 mg/mL formulation in PFS produced by Process 2 (150 mg×1 SC injection) (reference, N=130). Serial blood samples for anti-drug antibody (ADA) were collected over a period of 113 days. […]
The presence of ADA was determined using a validated titer based bridging electrochemiluminescence immunoassay as described below.
This is a qualitative assay designed to detect anti-risankizumab antibodies in human serum. Anti-drug antibodies (ADA) against risankizumab in human serum were detected using an electrochemiluminescent (ECL) immunoassay. […] This complex was bound to a blocked MSD-streptavidin (MSD-SA) plate and detected by a chemiluminescent signal that was generated when voltage was applied. […]
Samples were analyzed in a tiered approach. […]
The confirmatory assay measured the percent inhibition of ECL immunoassay signals of screened positive samples when spiked with excess risankizumab. […]

ADCC activity = assay: ADCC activity
Text: (§3) Risankizumab has been designed with Leu234Aa and Leu235Aa mutations in Fc to diminish its Fc effector binding activity.

CDC activity = assay: CDC activity
Text: as §3

[5] = Hitchhiker protein spiking study, PS20-CAD subspecies method; type: biochemical; conditions: for activity to PS20 degradation: DP3 and DP4 materials spiked with enzyme (summary); for PS20 degradation: ~30 hours incubation at 25° C.
Text: PS20-CAD subspecies method was used. This method was originally developed to qualitatively determine subspecies composition and to quantify the PS20 subspecies relative to a PS20 manufacturing standard. The HPLC system used in this study was an Agilent 1260 II infinity HPLC equipped with a quaternary pump, mobile phase degassing unit, refrigerated auto sampler, temperature controlled column compartment, and a Thermo Scientific charged aerosol detector (CAD). Data was collected by Waters Empower acquisition system. Methods for detecting PS20 using Charged Aerosol Detector (CAD) are also described in Example 10.
Since the system takes 70 minutes to finish each injection (labeled as “injection” in Table 19), repeated injections measured the degradation patterns (profiles) at different incubation times. All samples were kept in a 25° C. autosampler during the entire test.
PS20-CAD subspecies method described above was used.
The solution was mixed and tested. All samples were studied at 25° C.
The solution was mixed and tested. All samples were studied at 25° C. […] More information can be found in Table 21A.
The solution was mixed and tested. More information regarding the study design can be found in Table 21A.
The solution was mixed and tested. More information regarding the study design can be found in Table 21B below.
The solution was mixed and tested. More information regarding the study design can be found in Table 21B.

DS4-005: risankizumab Process 4 drug substance batch
HMW peak by UP-SEC [1]: smaller
LMW peak by CGE-NR [2]: smaller

Immunoglobulin G1, anti-(human interleukin 23 subunit p19) (human-Mus musculus heavy chain), disulfide with human-Mus musculus κ-chain, dimer [risankizumab]
IC50 (IL-23 [3]): < 0.01 nM
inhibition of IL-12 stimulated IFN-γ production (IL-12): does not inhibit
effect on IL-12 (IL-12; maximum tested concentration (33 nM)): does not affect
binding to human IL-23 (IL-23 [4]): high affinity
treatment-emergent ADA incidence (healthy adult subjects): low
ADCC activity (ADCC activity): does not possess
COC activity (CDC activity): does not possess

ustekinumab: comparator in the same IL-23 stimulated IL-17 production system [reference compound]
IC50 (IL-23 [3]): 0.167 nM

B1: PLA2G15: hitchhiker protein enzyme spiked into DP3/DP4 material (protein)
chain: VQRHPPVVLVPGDLGNQLEAKLDKPKVVHYLCSKRTDSYFTLWLNLELLLPVIIDCWIDNIRLVYNRTSRATQFPDGVDVRVPGFGETFSLEFLDPSKRTVGSYFHTMVESLVGWGYTRGEDLRGAPYDWRRAPNENGPYFLALREMIEEMYQMYGGPVVLVAHSMGNMYTLYFLQRQPQAWKDKYIHAFISLGAPWGGVAKTLRVLASGDNNRIPVIGPLKIREQQRSAVSTSWLLPYNHTWSHDKVFVHTPTTNYTLRDYHQFFQDIRFEDGWFMRQDTEGLVEAMMPPGVELHCLYGTGVPTPDSFYYESFPDRDPKICFGDGDGTVNLESVLQCQAWQSRQEHKVSLQELPGSEHIEMLANATTLAYLKRVLFEP
PS20 degradation pattern (profile) versus pattern observed in DP2 materials ([5]; DP3 spiked with 1 μg/mL PLA2G15, 25° C.): matches
PS20 degradation rate versus spiking level ([5]; DP4 spiked with 0.01875-0.6 ng/mg PLA2G15, 25° C.): concentration dependent PS20 degradation rates were observed

B2: PLA2G7: Recombinant human PLA2G7/PAF-AH/LP-PLA2 protein (5106-PL-010, Bio-techne) (protein, UniProt Q13093 22-441, looked up)
Platelet-activating factor …: FDWQYINPVAHMKSSAWVNKIQVLMAAASFGQTKIPRGNGPYSVGCTDLMFDHTNKGTFLRLYYPSQDNDRLDTLWIPNKEYFWGLSKFLGTHWLMGNILRLLFGSMTTPANWNSPLRPGEKYPLVVFSHGLGAFRTLYSAIGIDLASHGFIVAAVEHRDRSASATYYFKDQSAAEIGDKSWLYLRTLKQEEETHIRNEQVRQRAKECSQALSLILDIDHGKPVKNALDLKFDMEQLKDSIDREKIAVIGHSFGGATVIQTLSEDQRFRCGIALDAWMFPLGDEVYSRIPQPLFFINSEYFQYPANIIKMKKCYSPDKERKMITIRGSVHQNFADFTFATGKIIGHMLKLKGDIDSNVAIDLSNKASLAFLQKHLGLHKDFDQWDCLIEGDDENLIPGTNINTTNQHIMLQNSSGIEKYN
activity to PS20 degradation [5]: moderate activities
PS20 degradation pattern (profile) versus pattern observed in DP2 materials ([5]; DP3 spiked with 5 μg/mL enzyme, 25° C.): very different
PS20 degradation ([5]; DP3 spiked with 5 μg/mL enzyme): caused PS20 degradation with a relatively high activity

B3: PRDX6: Recombinant human Peroxiredoxin 6 protein (ab87631, Abcam) (protein, UniProt P30041 2-224, looked up)
Peroxiredoxin-6: PGGLLLGDVAPNFEANTTVGRIRFHDFLGDSWGILFSHPRDFTPVCTTELGRAAKLAPEFAKRNVKLIALSIDSVEDHLAWSKDINAYNCEEPTEKLPFPIIDDRNRELAILLGMLDPAEKDEKGMPVTARVVFVFGPDKKLKLSILYPATTGRNFDEILRVVISLQLTAEKRVATPVDWKDGDSVMVLPTIPEEEAKKLFPKGVFTKELPSGKKYLRYTPQP
activity to PS20 degradation [5]: very low activities
PS20 degradation ([5]; DP3 spiked with 5 μg/mL enzyme): no detectable PS20 degradation
